In patent US20200352839:

System: Compound E7 (CTP-Cas1-FINA)

caspase-1
HPLC analysis after treatment with caspase-1 (cleavage): the compound is cleaved into two moieties, that is, finasteride and the protein transduction domain
